{"source": "patent US20170051068A1", "about": "(Janssen / Centocor, published 2017)", "binders": {"B1": {"name": "BCMB128 (antibody, human IgG4 S228P, lambda, F234A L235A, V domains shown)", "VH": "QLQLQESGPGLVKPSETLSLTCTVSGGSISSGSYFWGWIRQPPGKGLEWIGSIYYSGITYYNPSLKSRVTISVDTSKNQFSLKLSSVTAADTAVYYCARHDGATAGLFDYWGQGTLVTVSS", "VL": "SYVLTQPPSVSVAPGQTARITCGGNNIGSKSVHWYQQPPGQAPVVVVYDDSDRPSGIPERFSGSNSGNTATLTISRVEAGDEAVYYCQVWDSSSDHVVFGGGTKLTVLG", "notes": "IgG4 S228P, L234A, L235A; also called BCBM128"}, "B2": {"name": "BCMB176 (antibody, human IgG4 S228P, lambda, F234A L235A, V domains shown)", "VH": "QLQLQESGPGLVKPSETLSLTCTVSGGSISSSSYFWGWIRQPPGKGLEWIGSIYYSGITYYNPSLKSRVTISVDTSKNQFSLKLSSVTAADTAVYYCARHDGATAGLFDYWGQGTLVTVSS", "VL": "SYVLTQPPSVSVAPGQTARITCGGNNIGSKSVHWYQQPPGQAPVVVVYDDSDRPSGIPERFSGSNSGNTATLTISRVEAGDEAVYYCQVWDSSSDHVVFGGGTKLTVLG", "notes": "IgG4 S228P, L234A, L235A; also called BCBM176"}, "B3": {"name": "BCMB129 (antibody, human IgG4 S228P, lambda, F234A L235A, V domains shown)", "VH": "QLQLQESGPGLVKPSETLSLTCTVSGGSISSGSYFWGWIRQPPGKGLEWIGSIYYSGSTYYNPSLKSRVTISVDTSKNQFSLKLSSVTAADTAVYYCARHDGAVAGLFDYWGQGTLVTVSS", "VL": "SYVLTQPPSVSVAPGQTARITCGGNNIGSKSVHWYQQPPGQAPVVVVYDDSDRPSGIPERFSGSNSGNTATLTISRVEAGDEAVYYCQVWDSSSDHVVFGGGTKLTVLG", "notes": "IgG4 S228P, L234A, L235A; also called BCBM129"}}}
{"molecular_target": "T1, monomeric human BCMA (human, UniProt Q02223 1-54, limits assumed)", "T1 construct": "also called monomeric BCMA antigen", "T1 sequence": "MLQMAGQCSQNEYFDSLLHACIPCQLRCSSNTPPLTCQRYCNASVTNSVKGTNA", "assay": "SPR, monomeric human BCMA", "units": {"Kd": "nM", "koff": "s⁻¹", "kon": "M⁻¹ s⁻¹"}}
{"binder": "B1", "Kd": 2.07, "koff": 0.0087, "kon": "4.2e+06"}
{"binder": "B2", "Kd": 7.18, "koff": 0.0288, "kon": "4e+06"}
{"binder": "B3", "Kd": 5.47, "koff": 0.00843, "kon": "1.54e+06"}
